In patent US20200024320A1 (published 2020):
Where no end group is shown, it is not given here.

T1: MBP-RAMP2 ECD [L106R]-(GS)5-CLR ECD-H6 fusion protein (human, UniProt O60895 43-143; Q16602 29-144)
T1 chain: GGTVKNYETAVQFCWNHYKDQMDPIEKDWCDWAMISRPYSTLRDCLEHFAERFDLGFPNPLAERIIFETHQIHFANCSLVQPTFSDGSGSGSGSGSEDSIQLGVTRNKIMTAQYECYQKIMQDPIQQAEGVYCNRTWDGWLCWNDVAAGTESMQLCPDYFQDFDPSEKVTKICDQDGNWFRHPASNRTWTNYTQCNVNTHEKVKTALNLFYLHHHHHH


How the values were obtained:
[1] = molecular target: T1, MBP-RAMP2 ECD [L106R]-(GS)5-CLR ECD-H6 …; test: FP competition, FITC-AM W/W probe, RAMP2-CLR ECD
[2] = molecular target: T1, MBP-RAMP2 ECD [L106R]-(GS)5-CLR ECD-H6 …; test: AlphaLISA/AlphaScreen competition, RAMP2-CLR ECD
[3] = molecular target: T1, MBP-RAMP2 ECD [L106R]-(GS)5-CLR ECD-H6 …; test: FP competition; KI at RAMP1-CLR ECD over KI at RAMP2-CLR ECD
[4] = molecular target: T1, MBP-RAMP2 ECD [L106R]-(GS)5-CLR ECD-H6 …; test: AlphaLISA competition, Biotin-AM probe

Row | Binder | Ki [1] [µM] | pKI [1] | IC50 [2] [µM] | Receptor Selectivity (fold) [3] [fold] | fold increase in affinity (against AM(37-52)NH2) [4] [fold]
1 | FVPTDVGPWSF-NH2 [CGRP(27-37)NH2 [N31D, S34P, K35W, A36S]] | 2.45 | 5.61 |  |  | 
2 | FVPTDVGPWSY-NH2 [CGRP(27-37)NH2 [N31D, S34P, K35W, A36S, F37Y]] | 0.324 | 6.49 |  |  | 
3 | FVPTDTGPWSF-NH2 [CGRP(27-37)NH2 [N31D, V32T, S34P, K35W, A36S]] | 2.75 | 5.56 |  |  | 
4 | DKDNVAPRWLIGPWGF-NH2 [AM(37-52)NH2 [S45W, K46L, S48G, Q50W, Y52F]] | 1.25 | 5.9 |  |  | 
5 | DKDNVAPRSLISPWGY-NH2 [AM(37-52)NH2 [K46L, Q50W]] | 1.66 | 5.78 |  |  | 
6 | DKDNVAPRSKISPQGY-NH2 (also called WT (AM(37-52)NH2 scaffold)) [AM(37-52)NH2] | 20.4 | 4.69 | 5 to 15 |  | 
7 | DKDNVAPRSKISPFGY-NH2 [AM(37-52)NH2 [Q50F]] | 2.14 | 5.67 |  | 5 | 
8 | DKDNVAPRWKISPWGY-NH2 (also called S45W/Q50W double mutant) [AM(37-52)NH2 [S45W, Q50W]] | 0.0813 | 7.09 |  |  | 
9 | DKDNVAPRTLISPWGY-NH2 [AM(37-52)NH2[S45T, K46L, Q50W]] | 1.57 | 5.8 |  |  | 
10 | DKDNVAPRSKISPWGY-NH2 [AM(37-52)NH2 [Q50W]] | 0.316 | 6.5 |  |  | ~100
11 | DKDNVAPRWMISPWGF-NH2 [AM(37-52)NH2 [S45W, K46M, Q50W, Y52F]] | 7.76 | 5.11 |  |  | 
12 | DKDNVAPRTWISPWGY-NH2 [AM(37-52)NH2[S45T, K46W, Q50W]] | 12.5 | 4.9 |  |  | 

Continued by falling Ki [1], values first:

Row | Ki [1] [µM] | pKI [1] | IC50 [2] [µM] | Receptor Selectivity (fold) [3] [fold] | fold increase in affinity (against AM(37-52)NH2) [4] [fold] | Binder
13 | 89.1 | 4.05 |  |  |  | DKDNVAPRSLISPWGF-NH2 [AM(37-52)NH2 [K46L, Q50W, Y52F]]
14 | 30.3 | 4.55 |  |  |  | DKFNVAPRSLISPWGF-NH2 [AM(37-52)NH2 [D39F, K46L, Q50W, Y52F]]
15 | 16.6 | 4.78 |  |  |  | DKDNVAPRWWISPWGF-NH2 [AM(37-52)NH2 [S45W, K46W, Q50W, Y52F]]
16 | 14.5 | 4.84 |  |  |  | FVPTDTGPWGY-NH2 [CGRP(27-37)NH2 [N31D, V32T, S34P, K35W, A36G, F37Y]]
17 | 6.1 | 5.22 |  |  |  | DKKNVAPRSKISPQGY-NH2 [AM(37-52)NH2 [D39K]]
18 | 4.07 | 5.39 |  |  |  | DKDNVAPRWLISPWGF-NH2 [AM(37-52)NH2 [S45W, K46L, Q50W, Y52F]]
19 | 1.83 | 5.74 |  |  |  | DKFNVAPRSLISPWGY-NH2 [AM(37-52)NH2 [D39F, K46L, Q50W]]
